From the supplement of paper PMC10567573

B1: BTBD1 (parent)
chain: TSAEIELPDVEPAAFLALLRFLYS
B2: HSP90AB1 (parent)
chain: EADKNDKAVKDLVVLLFETALLSS

Variants of: B1
Assay: protein stability index of a GFP-peptide fusion (GPS, HEK-293T) (PSI 1-6); higher = more stable
Details: c terminus: a fixed tail appended
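Also: lentivirally expressed fusions sorted by FACS into six bins by GFP to DsRed ratio, PSI derived from sequencing read proportions per bin multiplied by bin number.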

Protein stability index: each site, then its substitutions
R20: G 2.67 | H 1.79 | K 1.29 | L 3.18 | M 2.54 | N 1.71 | P 2.01 | Q 2.05 | S 1.93 | T 4.67 | V 3.16 | W 3.4 | Y 2.09
F21: A 2.21 | C 1.4 | D 1.85 | E 1.82 | G 2.18 | H 2.14 | I 2.25 | K 1.78 | L 2.01 | M 1.94 | N 1.69 | P 1.8 | Q 1.99 | R 2.25 | S 1.97 | T 1.89 | V 2.01 | W 2.41 | Y 1.61
L22: A 1.71 | C 1.64 | D 1.87 | E 2.07 | F 2.61 | G 1.72 | H 1.96 | I 1.75 | K 1.91 | M 2.23 | N 2.06 | P 2.26 | Q 1.5 | R 1.26 | S 1.16 | T 1.98 | V 2.15 | W 1.56 | Y 1.83
Y23: A 1.99 | C 1.79 | D 1.49 | E 1.9 | F 1.75 | G 1.58 | H 1.6 | I 1.97 | K 2.1 | L 2.57 | M 2.27 | N 1.61 | P 1.75 | Q 2.21 | R 2.26 | S 1.36 | T 1.94 | V 2.37 | W 1.99
S24: A 2.19 | C 2.12 | D 1.89 | E 1.69 | F 2.33 | G 2.86 | H 1.72 | I 2.32 | K 1.52 | L 2.39 | M 2.37 | N 1.78 | P 2.61 | Q 2.33 | R 2.44 | T 1.97 | V 2.1 | W 1.89 | Y 1.94

Variants of: B2
Assay: as above
Details: c terminus: a fixed tail appended

Protein stability index: each site, then its substitutions
E1: A 1.45 | C 1.88 | D 1.86 | F 1.36 | G 2.37 | H 1.94 | I 2.56 | K 1.61 | L 2.02 | M 2.69 | N 1.89 | P 1.95 | Q 1.87 | R 1.69 | S 1.78 | T 2.58 | V 2.54 | W 2.3
A2: C 1.74 | D 2.04 | F 2.04 | G 1.33 | H 2.1 | I 1.73 | K 1.68 | L 1.68 | M 1.67 | N 2.11 | P 1.79 | Q 1.54 | R 2.26 | S 1.77 | T 2.15 | V 2.1 | W 1.92 | Y 1.73
D3: A 2.57 | C 1.4 | E 1.65 | F 3.79 | G 1.58 | H 1.98 | I 1.9 | K 1.58 | L 1.86 | M 1.25 | N 2.13 | P 2.47 | Q 1.82 | R 1.9 | S 2.65 | T 1.65 | V 2.02 | W 1.86 | Y 2.46
K4: A 1.9 | C 1.87 | D 2.13 | E 2.2 | F 2.21 | G 1.34 | H 1.82 | I 2 | L 1.75 | M 2.13 | N 2.05 | P 1.63 | Q 2.09 | R 1.59 | S 1.8 | T 2.06 | V 1.85 | W 2.12 | Y 2.13
N5: A 2.57 | E 2.06 | F 1.64 | G 1.67
